Reference: the supplement of paper PMC7877785
± gives the uncertainty stated by the source.

Test: self-splicing fitness, log relative to wild type (ln ratio); higher = more splicing; Tetrahymena group I intron in knt gene, E. coli kanamycin selection, DiMSum; sequences stand for … in CUCUCU…GGAGGGAAAAGUUAUCAGGCAUGCACCUGGUAGCUAGUCUUUAAACCAAUAGAUUGCAUCGGUUUAAAAGGCAAGACCGUCAAAUUGCGGGAAAGGGGUCAACAGCCGUUCAGUACCAAGUCUCAGGGGAAACUUUGAGAUGGCCUUGCAAAGGGUAUGGUAAUAAGCUGACGGACAUGGUCCUAACCACGCAGCCAAGUCCUAAGUCAACAGAUCUUCUGUUGAUAUGGAUGCAGUUCACAGACUAAAUGUCGGUCGGGGAAGAUGUAUUCUUCUCAUAAGAUAUAGUCGGACCUCUCCUUAAUGGGAGCUAGCGGAUGAAGUGAUGCAACACUGGAGCCGCUGGGAACUAAUUUGUAUGCGAAAGUAUAUUGAUUAGUUUUGGAGUACUCGUGGUCG
How it was run: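 Colonies from six replicate transformations of E. coli BL21(DE3) were pooled and amplicon-sequenced on an Illumina HiSeq 2500. The library placed an intron with all eight P1ex-region nucleotides randomised inside the knt kanamycin-resistance gene on pET-22b(+), and cells grew overnight at 37°C or 30°C on LB agar with or without 25 μg/mL kanamycin (plus 100 μg/mL carbenicillin, 50 μM IPTG, 0.2% rhamnose). Fitness is the DiMSum error-weighted combination of wild-type-normalised replicate fold changes, kanamycin versus none.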

| Sequence | self-splicing fitness (ln) (30 °C) | self-splicing fitness (ln) (37 °C) |
| --- | --- | --- |
| ACGUAGCAAUAUUACGUGCA | -2.38 ± 0.17 | -0.124 ± 0.096 |
| ACGUAGCAAUAUUACGUUUG | -3.46 ± 0.17 | -2.95 ± 0.18 |
| ACUAAGCAAUAUUACGACGG | -0.271 ± 0.074 | 0.203 ± 0.094 |
| ACUAAGCAAUAUUACGAGUA | -2.35 ± 0.17 | -1.78 ± 0.18 |
| ACUAAGCAAUAUUACGAUGA | -0.267 ± 0.068 | -0.253 ± 0.076 |
| ACUAAGCAAUAUUACGCAGA | -1.89 ± 0.092 | -1.5 ± 0.083 |
| ACUAAGCAAUAUUACGCAGG | -2.02 ± 0.088 | -0.927 ± 0.092 |
| ACUAAGCAAUAUUACGCCCU | 0.438 ± 0.23 | -0.36 ± 0.26 |
| ACUAAGCAAUAUUACGCGGC | -3.74 ± 0.23 | -1.85 ± 0.18 |
| ACUAAGCAAUAUUACGCUUG | -3.11 ± 0.21 | -2.1 ± 0.19 |
| ACUAAGCAAUAUUACGGCAG | -1.71 ± 0.1 | -0.238 ± 0.11 |
| ACUAAGCAAUAUUACGGCCC | -0.668 ± 0.18 | -0.484 ± 0.27 |
| ACUAAGCAAUAUUACGGCCG | -0.147 ± 0.087 | -0.306 ± 0.12 |
| ACUAAGCAAUAUUACGGCGG | -0.98 ± 0.07 | -0.452 ± 0.1 |
| ACUAAGCAAUAUUACGUACA | -1.55 ± 0.086 | -1.14 ± 0.087 |
| ACUAAGCAAUAUUACGUACG | -1.76 ± 0.12 | -0.814 ± 0.16 |
| ACUAAGCAAUAUUACGUCCA | -1.54 ± 0.12 | -1.22 ± 0.16 |
| ACUAAGCAAUAUUACGUCCU | -0.876 ± 0.095 | 0.0118 ± 0.14 |
| ACUAAGCAAUAUUACGUCGC | -3.12 ± 0.18 | -1.86 ± 0.2 |
| ACUAAGCAAUAUUACGUCUU | -1.5 ± 0.075 | -1.14 ± 0.078 |
| ACUAAGCAAUAUUACGUUAG | -2.59 ± 0.13 | -2.1 ± 0.17 |
| ACUAAGCAAUAUUACGUUUC | -4.35 ± 0.26 | -1.85 ± 0.19 |
| ACUCAGCAAUAUUACGACAG | -1.94 ± 0.11 | -0.382 ± 0.12 |
| ACUCAGCAAUAUUACGAGCU | -1.04 ± 0.064 | -0.447 ± 0.079 |

| Sequence | self-splicing fitness (ln) (30 °C) | self-splicing fitness (ln) (37 °C) |
| --- | --- | --- |
| ACUCAGCAAUAUUACGAUUU | 0.00163 ± 0.057 | 0.417 ± 0.073 |
| ACUCAGCAAUAUUACGCAGC | -2.14 ± 0.079 | -0.903 ± 0.093 |
| ACUCAGCAAUAUUACGCAUA | -1.35 ± 0.082 | -0.543 ± 0.094 |
| ACUCAGCAAUAUUACGCAUU | -0.878 ± 0.049 | -0.294 ± 0.06 |
| ACUCAGCAAUAUUACGCCAG | -0.898 ± 0.087 | -1.27 ± 0.15 |
| ACUCAGCAAUAUUACGCCGU | -1.24 ± 0.076 | -0.58 ± 0.093 |
| ACUCAGCAAUAUUACGCCUG | -3.39 ± 0.22 | -1.5 ± 0.2 |
| ACUCAGCAAUAUUACGCGGU | -3.73 ± 0.19 | -2.01 ± 0.21 |
| ACUCAGCAAUAUUACGCGUG | -1.35 ± 0.073 | -0.547 ± 0.081 |
| ACUCAGCAAUAUUACGCUCA | -0.566 ± 0.096 | 0.105 ± 0.14 |
| ACUCAGCAAUAUUACGCUCG | -0.26 ± 0.087 | 0.176 ± 0.12 |
| ACUCAGCAAUAUUACGGCGG | -0.825 ± 0.078 | -0.0415 ± 0.095 |
| ACUCAGCAAUAUUACGGGAG | -1.56 ± 0.051 | -1.11 ± 0.067 |
| ACUCAGCAAUAUUACGGUCC | -1.91 ± 0.11 | -0.708 ± 0.14 |
| ACUCAGCAAUAUUACGUAGC | -1.24 ± 0.069 | -0.786 ± 0.11 |
| ACUCAGCAAUAUUACGUCAA | -2.56 ± 0.1 | -1.78 ± 0.14 |
| ACUCAGCAAUAUUACGUCGC | -2.57 ± 0.24 | -0.332 ± 0.17 |
| ACUCAGCAAUAUUACGUGGA | -1.96 ± 0.078 | -1.54 ± 0.082 |
| ACUCAGCAAUAUUACGUGGU | -3.75 ± 0.12 | -2.75 ± 0.12 |
| ACUCAGCAAUAUUACGUUUC | -2.88 ± 0.17 | -2.33 ± 0.21 |
| ACUGAGCAAUAUUACGAAAA | – | -1.32 ± 0.43 |
| ACUGAGCAAUAUUACGAAAC | -4.21 ± 0.42 | -1.42 ± 0.38 |
| ACUGAGCAAUAUUACGAAAG | -2.67 ± 0.15 | -1.73 ± 0.18 |
| ACUGAGCAAUAUUACGAAGC | – | -2.04 ± 0.46 |

| Sequence | self-splicing fitness (ln) (30 °C) | self-splicing fitness (ln) (37 °C) |
| --- | --- | --- |
| ACUGAGCAAUAUUACGAAUC | -3.54 ± 0.36 | -2.55 ± 0.21 |
| ACUGAGCAAUAUUACGACCC | – | -0.357 ± 0.33 |
| ACUGAGCAAUAUUACGACUC | -2.18 ± 0.16 | -1.13 ± 0.2 |
| ACUGAGCAAUAUUACGAGAC | -2.78 ± 0.22 | -2.63 ± 0.2 |
| ACUGAGCAAUAUUACGAGAU | -4.18 ± 0.33 | -2.27 ± 0.21 |
| ACUGAGCAAUAUUACGAGCC | -3.59 ± 0.4 | – |
| ACUGAGCAAUAUUACGAUGC | -2.69 ± 0.16 | -0.416 ± 0.15 |
| ACUGAGCAAUAUUACGAUUU | -1.12 ± 0.082 | -0.446 ± 0.12 |
| ACUGAGCAAUAUUACGCAUA | -2.14 ± 0.31 | -1.77 ± 0.44 |
| ACUGAGCAAUAUUACGCCAC | – | -2.31 ± 0.35 |
| ACUGAGCAAUAUUACGCUCU | -3.59 ± 0.2 | -2.31 ± 0.24 |
| ACUGAGCAAUAUUACGGCGG | -1.46 ± 0.1 | -1.54 ± 0.13 |
| ACUGAGCAAUAUUACGGCUA | -1.61 ± 0.15 | -1.63 ± 0.16 |
| ACUGAGCAAUAUUACGGGUA | -3.08 ± 0.24 | -1.67 ± 0.14 |
| ACUGAGCAAUAUUACGGGUC | -4.21 ± 0.27 | -3.02 ± 0.33 |
| ACUGAGCAAUAUUACGGGUG | -2.49 ± 0.15 | -1.38 ± 0.15 |
| ACUGAGCAAUAUUACGGGUU | -2.09 ± 0.1 | -3.88 ± 0.28 |
| ACUGAGCAAUAUUACGUGCA | -2.8 ± 0.2 | -2.36 ± 0.25 |
| ACUGAGCAAUAUUACGUGUA | -3.51 ± 0.2 | -2.5 ± 0.17 |
| ACUUAGCAAUAUUACGACAG | -0.902 ± 0.08 | 0.0363 ± 0.1 |
| ACUUAGCAAUAUUACGACGU | -0.13 ± 0.076 | 0.549 ± 0.079 |
| ACUUAGCAAUAUUACGCGCA | -0.717 ± 0.093 | -0.258 ± 0.13 |
| ACUUAGCAAUAUUACGCGCC | -1.35 ± 0.18 | -0.348 ± 0.19 |
| ACUUAGCAAUAUUACGCGUA | -1.82 ± 0.2 | -1.18 ± 0.2 |

| Sequence | self-splicing fitness (ln) (30 °C) | self-splicing fitness (ln) (37 °C) |
| --- | --- | --- |
| ACUUAGCAAUAUUACGCGUG | -1.89 ± 0.1 | -1.13 ± 0.11 |
| ACUUAGCAAUAUUACGCUAA | -2.99 ± 0.39 | -3.09 ± 0.29 |
| ACUUAGCAAUAUUACGGAUA | -3.09 ± 0.28 | -1.15 ± 0.18 |
| ACUUAGCAAUAUUACGGAUC | -2.09 ± 0.11 | -1.35 ± 0.16 |
| ACUUAGCAAUAUUACGGCCG | -0.516 ± 0.071 | -0.251 ± 0.11 |
| ACUUAGCAAUAUUACGGGAG | -1.75 ± 0.072 | -1.3 ± 0.085 |
| ACUUAGCAAUAUUACGGUCU | -1.41 ± 0.088 | 0.0181 ± 0.082 |
| ACUUAGCAAUAUUACGGUUG | -3.15 ± 0.17 | -1.43 ± 0.15 |
| ACUUAGCAAUAUUACGUCAG | -1.93 ± 0.11 | -1.56 ± 0.12 |
| ACUUAGCAAUAUUACGUCCA | -1.56 ± 0.2 | -0.528 ± 0.2 |
| ACUUAGCAAUAUUACGUGAG | -0.348 ± 0.067 | -0.0975 ± 0.087 |
| ACUUAGCAAUAUUACGUGGG | -2.95 ± 0.14 | -1.14 ± 0.12 |
| ACUUAGCAAUAUUACGUUAA | -4.2 ± 0.46 | -2.02 ± 0.2 |
| ACUUAGCAAUAUUACGUUUC | -4.28 ± 0.31 | -2.78 ± 0.27 |
| AGAAAGCAAUAUUACGAAGC | -3.61 ± 0.47 | -2.91 ± 0.48 |
| AGAAAGCAAUAUUACGAAUC | -3 ± 0.26 | -2.39 ± 0.24 |
| AGAAAGCAAUAUUACGACUA | -0.244 ± 0.12 | -0.42 ± 0.12 |
| AGAAAGCAAUAUUACGACUG | -1.04 ± 0.093 | -0.249 ± 0.12 |
| AGAAAGCAAUAUUACGAGCC | -2.01 ± 0.17 | -0.816 ± 0.21 |
| AGAAAGCAAUAUUACGAGCU | -0.0239 ± 0.055 | 0.0125 ± 0.072 |
| AGAAAGCAAUAUUACGAGUG | -2.27 ± 0.094 | -1.96 ± 0.12 |
| AGAAAGCAAUAUUACGAGUU | -1.58 ± 0.084 | -0.668 ± 0.11 |
| AGAAAGCAAUAUUACGAUGA | -0.734 ± 0.1 | -0.785 ± 0.11 |
| AGAAAGCAAUAUUACGAUUC | -1.03 ± 0.095 | -1.07 ± 0.14 |
